Target: human Argonaute-2 (human) (UniProt Q9UKV8)
Test: ITC

Row | Kd [nM] | fold lower affinity than without competitor (with 5 μM motif-2) [fold] | fold lower affinity than without competitor (with 10 μM motif-2) [fold] | Binder
1 | 234 | 7 | 15 | TVDNGTSAWGKPIDSGPSWGEP [hGW182 (TNRC6A) hook motif]
2 | 118 | – | – | VNRTDLDPRVLSNSGWGQTPIKQNTAWDTETSPRGE (domain or fragment) [hGW182 (TNRC6A) motif-1]

Source: PMC5915679
